Results published in patent publication US20210130436A1.

molecular target: PD-L1 (human) (UniProt Q9NZQ7); assay: cell-based or functional assay
Sequence (Q9NZQ7 19-290): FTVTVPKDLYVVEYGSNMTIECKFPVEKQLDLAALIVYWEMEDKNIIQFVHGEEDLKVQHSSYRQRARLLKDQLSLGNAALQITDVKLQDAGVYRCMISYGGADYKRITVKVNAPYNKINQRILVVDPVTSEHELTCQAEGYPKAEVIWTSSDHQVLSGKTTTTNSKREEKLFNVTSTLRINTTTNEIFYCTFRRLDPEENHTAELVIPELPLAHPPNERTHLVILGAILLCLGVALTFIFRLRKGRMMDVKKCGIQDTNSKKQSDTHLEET

| Substance | Jurkat/IL2 + CHO/OKT3/PD-L1 reporter assay, RLU at CD80 Conc 5.0 nM [RLU] | RLU, Jurkat/IL2 + CHO/OKT3/PD-L1 Reporter Assay, CD80 Conc 5.0 nM [RLU] |
| --- | --- | --- |
| CD80 IgV-Fc Q27H/E35D/M47I (from UniProt P33681 35-141) (Fc fusion) | 1830 |  |
| CD80 IgV-Fc (inert) H18V/A26R/E35D/M47L/V68M/A71G/D90G (from UniProt P33681 35-141) (Fc fusion) |  | 738 |
| CD80 IgV-Fc (inert) H18F/A26P/E35D/M47I/V68M/A71G/D90G (from UniProt P33681 35-141) (Fc fusion) |  | 926 |
| CD80 IgV-Fc E35D/M47L/A71G/L85M (from UniProt P33681 35-141) (Fc fusion) | 1510 |  |
| CD80 IgV-Fc (inert) H18V/A26D/E35D/M47V/V68M/A71G/D90G (from UniProt P33681 35-141) (Fc fusion) |  | 771 |
| CD80 IgV-Fc Q27L/E35D/M47V/I61V/L85M (from UniProt P33681 35-141) (Fc fusion) | 1170 |  |

molecular target: CD28 (human) (UniProt P10747); assay: cell-based or functional assay

| Substance | Fold Increase over WT CD80-IgV-Fc, same assay, 50 nM [fold] | IL-2-luciferase RLU, Jurkat + K562/OKT3/PD-L1 aAPC, 50 nM [RLU] | IL-2-luciferase RLU, Jurkat + CHO/OKT3/PD-L1 aAPC, 0.6 nM [RLU] | IL-2-luciferase RLU, Jurkat + CHO/OKT3/PD-L1 aAPC, 1.9 nM [RLU] | IL-2-luciferase RLU, Jurkat + CHO/OKT3/PD-L1 aAPC, 5.6 nM [RLU] | IL-2-luciferase RLU, Jurkat + CHO/OKT3/PD-L1 aAPC, 16.7 nM [RLU] | IL-2-luciferase RLU, Jurkat + CHO/OKT3/PD-L1 aAPC, 50 nM [RLU] | IL-2-luciferase RLU, Jurkat + CHO/OKT3 aAPC (no PD-L1), 16.7 nM [RLU] | IL-2-luciferase RLU, Jurkat + CHO/OKT3 aAPC (no PD-L1), 50 nM [RLU] | IL-2-luciferase RLU, Jurkat + CHO/OKT3 aAPC (no PD-L1), 5.6 nM [RLU] |
| --- | --- | --- | --- | --- | --- | --- | --- | --- | --- | --- |
| variant CD80 IgV-Fc (inert) E35D/M47I/K54R/L85E (Fc fusion) | 1.1 | 602 |  |  |  |  |  |  |  |  |
| variant CD80 IgV-Fc (inert) H18Y/E35D/V68M/L97Q (Fc fusion) |  | 4340 |  |  |  |  |  |  |  |  |
| variant CD80 IgV-Fc (inert) E35D/D46V/M47I/A71G/F92V (Fc fusion) | 4 |  |  |  |  |  |  |  |  |  |
| variant CD80 IgV-Fc (inert) E35D/M47V/T62A/A71G/V83A/Y87H/L97M (Fc fusion) |  | 438 |  |  |  |  |  |  |  |  |
| variant CD80 IgV-Fc (inert) A26E/E35D/M43I/M47L/L85Q/K86E/R94W (Fc fusion) | 0.9 | 498 |  |  |  |  |  |  |  |  |
| variant CD80 IgV-Fc (inert) Q33L/E35D/T41S/M43I (Fc fusion) | 0.9 | 533 |  |  |  |  |  |  |  |  |
| variant CD80 IgV-Fc (inert) Q33L/E35D/M47V (Fc fusion) | 0.7 | 393 |  |  |  |  |  |  |  |  |
| variant CD80 IgV-Fc (inert) A26E/Q33R/E35D/M47L/L85Q (Fc fusion) | 0.9 | 500 |  |  |  |  |  |  |  |  |
| variant CD80 IgV-Fc (inert) H18Y/Y31H/E35D/M47V/A71G/L85Q (Fc fusion) |  | 455 |  |  |  |  |  |  |  |  |
| variant CD80 IgV-Fc (inert) H18Y/A26T/E35D/A71D/L85Q (Fc fusion) |  |  | 628 | 621 | 795 | 974 | 1160 | 660 | 926 |  |
| variant CD80 IgV-Fc (inert) Q33L/E35D/M47I/T62N/L85Q (Fc fusion) |  | 463 |  |  |  |  |  |  |  |  |
| variant CD80 IgV-Fc (inert) Q33L/E35D/D46E/M47I (Fc fusion) |  | 554 |  |  |  |  |  |  |  |  |
| variant CD80 IgV-Fc (inert) Q33K/E35D/M47V/K89E/K93R (Fc fusion) | 0.7 | 415 |  |  |  |  |  |  |  |  |
| variant CD80 IgV-Fc (inert) A26E/Q33R/E35D/M47L/L85Q/K86E (Fc fusion) |  | 569 |  |  |  |  |  |  |  |  |
| variant CD80 IgV-Fc (inert) E35D/D46E/M47V/L97Q (Fc fusion) | 1.9 | 1090 |  |  |  |  |  |  |  |  |
| variant CD80 IgV-Fc (inert) H18Y/V20A/Q33L/E35D/M47V/Y53F (Fc fusion) |  | 566 |  |  |  |  |  |  |  |  |
| variant CD80 IgV-Fc (inert) Q33L/E35D/M47L/V68M/L85Q/E88D (Fc fusion) |  | 572 |  |  |  |  |  |  |  |  |
| variant CD80 IgV-Fc (inert) E7D/E35D/M47I/L97Q (Fc fusion) | 2.2 | 1240 |  |  |  |  |  |  |  |  |
| variant CD80 IgV-Fc (inert) Q33R/E35D/K37E/M47V/L85Q (Fc fusion) |  | 464 |  |  |  |  |  |  |  |  |
| variant CD80 IgV-Fc (inert) E24D/Q33L/E35D/M47V/K54R/L85Q (Fc fusion) | 5.7 | 3240 |  |  |  |  |  |  |  |  |
| variant CD80 IgV-Fc (inert) Q33L/E35D/M43V/M47I/A71G (Fc fusion) |  | 473 |  |  |  |  |  |  |  |  |
| variant CD80 IgV-Fc (inert) Q27H/Q33L/E35D/M47V/N55D/L85Q/K89N (Fc fusion) |  | 551 |  |  |  |  |  |  |  |  |
| variant CD80 IgV-Fc (inert) Y31S/E35D/M47L/T79L/E88G (Fc fusion) | 0.9 | 496 |  |  |  |  |  |  |  |  |
| variant CD80 IgV-Fc (inert) Q33L/E35D/T41S/M47V (Fc fusion) |  | 481 |  |  |  |  |  |  |  |  |
| variant CD80 IgV-Fc (inert) V22A/E35D/V68E/A71D (Fc fusion) |  | 538 |  |  |  |  |  |  |  |  |
| variant CD80 IgV-Fc (inert) H18Y/Q33L/E35D/M47I (Fc fusion) | 0.9 | 486 |  |  |  |  |  |  |  |  |

| Substance | Fold Increase over WT CD80-IgV-Fc, same assay, 50 nM [fold] | IL-2-luciferase RLU, Jurkat + K562/OKT3/PD-L1 aAPC, 50 nM [RLU] | IL-2-luciferase RLU, Jurkat + CHO/OKT3/PD-L1 aAPC, 0.6 nM [RLU] | IL-2-luciferase RLU, Jurkat + CHO/OKT3/PD-L1 aAPC, 1.9 nM [RLU] | IL-2-luciferase RLU, Jurkat + CHO/OKT3/PD-L1 aAPC, 5.6 nM [RLU] | IL-2-luciferase RLU, Jurkat + CHO/OKT3/PD-L1 aAPC, 16.7 nM [RLU] | IL-2-luciferase RLU, Jurkat + CHO/OKT3/PD-L1 aAPC, 50 nM [RLU] | IL-2-luciferase RLU, Jurkat + CHO/OKT3 aAPC (no PD-L1), 16.7 nM [RLU] | IL-2-luciferase RLU, Jurkat + CHO/OKT3 aAPC (no PD-L1), 50 nM [RLU] | IL-2-luciferase RLU, Jurkat + CHO/OKT3 aAPC (no PD-L1), 5.6 nM [RLU] |
| --- | --- | --- | --- | --- | --- | --- | --- | --- | --- | --- |
| variant CD80 IgV-Fc (inert) A26E/Q33L/E35D/M47L (Fc fusion) |  | 476 |  |  |  |  |  |  |  |  |
| variant CD80 IgV-Fc (inert) Q33L/E35D/M47L/A71G/F92S (Fc fusion) | 0.7 | 394 |  |  |  |  |  |  |  |  |
| variant CD80 IgV-Fc (inert) Q33L/E35D/N48K/L85Q/L97Q (Fc fusion) | 0.6 | 358 |  |  |  |  |  |  |  |  |
| variant CD80 IgV-Fc (inert) A26E/E35D/M43T/M47L/L85Q/R94Q (Fc fusion) | 0.9 | 526 |  |  |  |  |  |  |  |  |
| variant CD80 IgV-Fc (inert) Q27H/E35D/M47L/L85Q/R94Q/E95K (Fc fusion) | 0.9 | 513 |  |  |  |  |  |  |  |  |
| variant CD80 IgV-Fc (inert) Q33L/E35D/M43I/L85Q/R94W (Fc fusion) |  | 553 |  |  |  |  |  |  |  |  |
| variant CD80 IgV-Fc (inert) S15P/Q33L/E35D/M47L/L85Q (Fc fusion) |  | 468 |  |  |  |  |  |  |  |  |
| variant CD80 IgV-Fc (inert) E35D/M47I/E77A/L85Q/R94W (Fc fusion) |  | 473 |  |  |  |  |  |  |  |  |
| WT CD80-ECD-Fc (effector) (from UniProt P33681 35-242) (Fc fusion) |  | 3040 |  |  |  |  |  |  |  |  |
| variant CD80 IgV-Fc (inert) Q33L/E35D/M47I (Fc fusion) | 0.7 | 423 |  |  |  |  |  |  |  |  |
| variant CD80 IgV-Fc (inert) Q33L/E35D/M47V/T79A (Fc fusion) | 0.9 | 527 |  |  |  |  |  |  |  |  |
| variant CD80 IgV-Fc (inert) E35D/M47L/A71G/L97Q (Fc fusion) | 3.8 | 2160 |  |  |  |  |  |  |  |  |
| variant CD80 IgV-Fc (inert) Q33L/E35D/M47I/L85Q (Fc fusion) |  | 432 |  |  |  |  |  |  |  |  |
| variant CD80 IgV-Fc (inert) H18Y/E35D/M47L (Fc fusion) | 5.3 | 2980 |  |  |  |  |  |  |  |  |
| variant CD80 IgV-Fc (inert) H18Y/A26E/Q33L/E35D/M47L/L85Q (Fc fusion) | 0.7 | 408 |  |  |  |  |  |  |  |  |
| variant CD80 IgV-Fc (inert) A71D/L72V/E95K (Fc fusion) |  |  | 524 | 530 | 617 | 641 | 755 | 547 | 644 | 466 |
| variant CD80 IgV-Fc (inert) H18L/V22A/E35D/M47L/N48T/L85Q (Fc fusion) | 4.7 | 2650 |  |  |  |  |  |  |  |  |
| variant CD80 IgV-Fc (inert) A26E/Q33L/E35D/M47L/L85Q (Fc fusion) | 0.7 | 416 |  |  |  |  |  |  |  |  |
| variant CD80 IgV-Fc (inert) V22A/E23D/Q33L/E35D/M47V (Fc fusion) | 0.7 | 390 |  |  |  |  |  |  |  |  |
| variant CD80 IgV-Fc (inert) V22A/R29H/E35D/D46E/M47I (Fc fusion) | 5.9 | 3310 |  |  |  |  |  |  |  |  |
| variant CD80 IgV-Fc (inert) E35D/M47L/L85Q (Fc fusion) | 5 |  |  |  |  |  |  |  |  |  |
| variant CD80 IgV-Fc (inert) E35D/M47V/A71G/L85M/L97Q (Fc fusion) |  | 576 |  |  |  |  |  |  |  |  |
| variant CD80 IgV-Fc (inert) Q33L/E35D/M47V/L85Q (Fc fusion) |  | 556 |  |  |  |  |  |  |  |  |
| variant CD80 IgV-Fc (inert) Q33R/E35D/D46E/M47I (Fc fusion) | 0.9 | 522 |  |  |  |  |  |  |  |  |
| variant CD80 IgV-Fc (inert) Q33K/E35D/D46V/L85Q (Fc fusion) | 0.9 | 504 |  |  |  |  |  |  |  |  |

same assay, conditions: not given

| Substance | IL-2 release, primary T cells; K562/OKT3 (No PD-L1); 1 nM | IL-2 release, primary T cells; K562/OKT3 (No PD-L1); 10 nM | IL-2 release, primary T cells; K562/OKT3 (No PD-L1); 100 nM |
| --- | --- | --- | --- |
| WT IgG1 Fc Control | 7080 | 6920 | 6260 |
